Experimental data published in the DeepSol protein solubility set.

Test: soluble on expression in E. coli; label from the status in PepcDB or PDB records

Sequence | soluble on expression in E. coli
MIMRWGEKRYHSLDYELKQMFKEKVYKIALNGGMTCPNRDGHVGTGGCIFCSSQGSGDFAGSARLSIAEQIRQGKADISSKRPVHSYIAYFQAFTNTYAPVETLRALYMEAIADPEVKILSIATRPDCLGADVLALLDEINQIKPVWVELGLQTIHPETSAYIRRGYELSVFEQAVKELRAIGITVIVHTILYLPGETKDDMLDTIHYLNHMDIQGIKLQLLHVLTHTDLAADYEKHPFYIPDMQDYIQFLGTCIAHLNPEIVIHRLTGDGPKDLLIAPLWTSNKRTVLNQLHSHLKEQDIWQGKEYYV | not soluble
MIMTNINTACVKNNASYQLNNALPNKETISSNFCERLEQWGNKSVNNGEERAIAVERIKEAYNSNMASLDLSYLDLSELPPIPSTVNTLNLENNCLTCLDLADNASLVNINLSVNKINTITFPKEPKLENIYINHNNLESLDLKNQHSLVNLEAQNNSLKKLEHHHHHH | not soluble
MIMVNNDAVVRNVYHKYFHPKEALVSSGVLNREISRAAGKAVPGIIDEESSGNNAQ | soluble
MIMVSGCQQQKEETPFYYGTWDEGRAPGPTDGVKSATVTFTEDEVVETEVMEGRGEVQLPFMAYKVISQSTDGSIEIQYLGPYYPLKSTLKRGENGTLIWEQNGQRKTMTRIESKTGREEKDEKSKSLEHHHHHH | soluble
MINNDLLRRISNIFDLTDETILTTFALSQCEISAEQLTNFFKEKDDTAYQPLEDVQFASFLNGLIIAKRGPSDGPERPVEEELTNNMIFNKVKIALSLKAEEVIATLELADLSLGKYELSAFFRNVNNKHYKDCSDEVLSAFLKGLKIKSK | not soluble
MINQNATYMEESAQSAVDNFGLGFNLGNTLDANGCGTGKPVATYETFWGQPETTQDMMTFLMQNGFNAVRIPVTWYEHMDAEGNVDEAWMMRVKAIVEYAMNAGLYAIVNVHHDTAAGSGAWIKADTDVYAATKEKFKKLWTQIANALADYDQHLLFEGYNEMLDGNNSWDEPQKASGYEALNNYAQDFVDAVRATGGNNATRNLIVNTYAAAKGENVLNNFMLPTDAVNNHLIVQVHSYDPWNFFNTKTTWDSECHNTLTEIFSALSKKFTTIPYIIGEYGTHGESDISVSKSSPAEKIKLAADQAADMVKLAKDHHSATFYWMSIFDGSDRIQPQWSLPTVVEAMQEAYNN | soluble
MINRNEEQNFNKLSEVINEYNKLQISQQIDYDKFYLYSIITHSTAIEGSTITEIENQLLFDEGISANKPIHEQLMNLDLKAAYEKSFELAKQHTQITPEILCELSVLVMKNTGTVYNTIGGTFSSAKGELRLVNVSAGRGGKSYMAWQKLPQKLEEFCSWLNSERKSIAEKDIEAQYAFSFLAHYKLVHIHPWADGNGRMSRLLMNVIQYEAGLVPAIIKKENRAEYIQSLASSQDKDDPAEFLHFMFSHHIRNLSEQIEEYKNSLEMSGS | not soluble
MINYPNLPNSALEITEQPEVKEITNELLKQLQNALNSNSLFSEQVELSLKGIVRILEVLLSLDFFKNANEIDSSLRNSIEWLNNAGESLKTKMKEYEGFFSDFNTSMRTNEQEVSATLNANTENIKSEIKKLENQLIETTTRLLTSYQIFLNNARDSANNQITANKTESLEALNQAKTSANNEITANQTQALTNINEAKENANNQITENKTQAITNINEAKNQSLSKH | not soluble
MIPKIIHYVWVGHNPKSKLIQECIATWKEKLPDYQFIEWNEDNFDMHENKYIEQAYKAKKWAFVSDYIRAKAIYEQGGIYLDTDVRVIASLTPLLDNKAFIGFENNNYLSAAIFGAEKGHPFMQDILDYYKDRNFEYDVNNQMAGVNSVSVTDMLIDRYGLKIGNKEQELKEGIHVYPDGVLCNPSVNSLSIHLFTGTWMNGKHSFKHKLVTFLKRHINTPKEAGLYAKWIRLEHHHHHH | soluble
MIPTISDVSTVEEWRSVAKDIVQRDGDVNWRATIVDWPGLGYSARPKMDYDTDVMEKFVVDFMNSPESPMSQSGNDDLVIIGGGHAATLALRATQRGLLKPSAIAAVAPTWAGPLPIVFGRDSSMVSRYGMLRGTLRAPGVGWMMYNMLVSNEKSIESQYKSHVYADQTNVTDAIIQSRYELTKQKGSRYVPAAFLTGLLDPVSSREEFLQLFADLEGKLPVMVMSTKGAPKRSKAEMEALRGAKGVSKFVEVEGALLPQEEYPSLVAQELYNFLQETFAKC | not soluble
MIQAILVFNNHGKPRLVRFYQRFPEEIQQQIVRETFHLVLKRDDNICNFLEGGSLIGGSDYKLIYRHYATLYFVFCVDSSESELGILDLIQVFVETLDKCFENVCELDLIFHMDKVHYILQEVVMGGMVLETNMNEIVAQIEAQNRLEKSEGGLSAAPARAVSAVKNINLPEIPRNINIGDLNIKVPNLSQFV | not soluble
MIQQESRLKVADNSGAREVLVIKVLGGSGRRYANIGDVVVATVKDATPGGVVKKGQVVKAVVVRTKRGVRRPDGSYIRFDENACVIIRDDKSPRGTRIFGPVARELRDKDFMKIISLAPEVI | soluble
MIRGNAGIMTNYRLSNLFSLQAELNFTTHGKNYCIDGLPHRNRYGYEVTDQTLINIRLHYLELPLLAKFTLFSSQKVTFDMAAGPFIGYKLAARQKTEGGDYQNTTSDYTRLNAGYQISFGFSVMKKRLFFEMRGSRGFVPINTADATKITTMQGGVAIGYYFFSGKKK | not soluble
MIRRAPTTLQLSHDDVTSLIDDLNEQKLKQQLNIEKTKYFQGKNGGSLHSNTDFQDTSQNIEDNNNDNDNDIDEDDDMSSYNDKAASVAHTRVLNSLHLSTDSNTAHETSNANDNHNPFYIREE | not soluble
MISAHCNLRLLCSSDSSASASQVAGTTEVVENLVTNDNSPNIPEAIDRLFSDIANINRESMAEIADIQIEEMAVNLWNWALTIGGGWLVNEEQKIRLHYVACKLLSMCEASFASEQSIQRLIMMNMRIGKEWLDAGNFLIADECFQAAVASLEQLYVKLIQRSSPEADLTMEKITVESDHFRVLSYQAESAVAQGDFQRASMCVLQCKDMLMRLPQMTSSLHHLCYNFGVETQKNNKYEESSFWLSQSYDIGKMDKKSTGPEMLAKVLRLLATNYLDWDDTKYYDKALNAVNLANKEHLSSPGLFLKMKILLKGETSNEELLEAVMEILHLDMPLDFCLNIAKLLMDHERESVGFHFLTIIHERFKSSENIGKVLILHTDMLLQRKEELLAKEKIEEIFLAHQTGRQLTAESMNWLHNILWRQAASSFEVQNYTDALQWYYYSLRFYSTDEMDLDFTKLQRNMACCYLNLQQLDKAKEAVAEAERHDPRNVFTQFYIFKIAVIEGNSERALQAIITLENILTDEESEDNDLVAERGSPTMLLSLAAQFALENGQQIVAEKALEYLAQHSEDQEQVLTAVKCLLRFLLPKIAEMPESEDKKKEMDRLLTCLNRAFVKLSQPFGEEALSLESRANEAQWFRKTAWNLAVQCDKDPVMMREFFILSYKMSQFCPSDQVILIARKTCLLMAVAVDLEQGRKASTAFEQTMFLSRALEEIQTCNDIHNFLKQTGTFSNDSCEKLLLLYEFEVRAKLNDPLLESFLESVWELPHLETKTFETIAIIAMEKPAHYPLIALKALKKALLLYKKEEPIDISQYSKCMHNLVNLSVPDGASNVELCPLEEVWGYFEDALSHISRTKDYPEMEILWLMVKSWNTGVLMFSRSKYASAEKWCGLALRFLNHLTSFKESYETQMNMLYSQLVEALSNNKGPVFHEHGYWSKSD | not soluble
MISDRPGLPGEDMRLALLSFENYLLANRNTEKPVLHIALSPAPEDKLTDEQLAELAQNYMQKMGYGDQPYIAYKHGDTHNTHIHIVSVCVDEEGRKINDSFEHRRSMTACRELEIDFGLRNGADMEERNQKAEMKKVDATQGDVRHQIGNTLKAVLESYRFQTFGEYSALLSTLNIEAKQVRGEFKGEPYTGIIYSATDDSGKVVSPPFKSSRFGKRFGNERLEKRMLSHTRDFKDGKWAPTIHAQVVYAMRHARSREELAGLLKKARIDAVFRENEQGRIYGVTFIDHNRREVFNGSRMGKEFSANIYNELFKWWDGIPATERSAHTGTELWQHHSHKAESGSPLEQAASIFSMETNPVDYGEEALARRMKKRRKAKRKSRGILEHHHHHH | soluble
MISNQILQNTIEGIKSISRVDLHVADTDGKIIASTSQLGDEFGHAIISFVNSPADSQSVQEYQFFKVYDESQLELILIAQGTSDDVFMVGKMAAFQIQNLLVAYKERFDKDNFIKNLLLDNLLLVDIYNRSKKLYIDVDARRCVCIIETKNEKDSVALETVRTLFSGNKKDFITAVDEKSIILVKELEEKQGYEDIEKIARTIVDMLNTEAMVKATVAYGTIVKEIKEVSRSYKEARMALDVGKIFFSTKNVIAYNNLGIGRLIYQLPIPLCKMFISEIFEGKSPDEFDEETLTTINKFFENSLNVSETSRQLYIHRNTLVYRLDKLQKSTGLDLRVFEDAITFKIALMVVKYMKYMENTDF | not soluble
MISRVAQMYFSEHKRQAEIAQHLNLSQATVSRMLKRAEAEGIVRTSIIPPPGTYSDLEAQLRERFDLPEAIVVDCSEDRDGAIMARIGEAAAHFLEVTLSQNEIIGVSSWSQTIFKMVENIHPLKGAKARYIVQTLGGMGDPSVQTHATQITTRLARLTEAEPKLLPVPGVATSREAKLLMLADPFVRETIDLFGSITLAIVGVGAVEPSELLARSGNIFSTKELADLAQAGAVGDISLRFFDKDGKPVKTPLDDRVIGLPLENLSNVDRVIALAGGLKKTEAIAGALRTGVIDVLVTDKFTAERLVGQET | not soluble
MISTANITQQFGAKPLFENISVKFGEGNRYGLIGANGCGKSTFMKILSGELEPTGGNVSYDPNERVAKLNQDQFAYEEFTVIDTVIMGHKELWEVKQERDRIYSLPEMSEEDGMKVADLEVQFAEMDGYMAEAKAGELLLAVGIPMEQHFGLMSEVAPGWKLRVLLAQILFADPDIMLLDEPTNNLDMDTIRWLEDTLNARNCTMIIISHDRHFLNSVCTHMADLDYGELRVYPGNYDEYMTAASQARERLLSDNAKKKAQIAELQTFVARFSANASKAKQATSRAKQIDKIKLDEVKASSRQNPFIRFEQSKELFRNA | not soluble
MISTPLSKEFEWPAKPVSLELQHQVEQFYYREAQLLDHHAFQAWFALLAEDIHYWMPIRTVRTAREQGLEYVPAGANAHFDDTHATMYGRIRQKTSDLNWAEDPPSRTRHLVSNVIVREMDTPGTLEVASAFLLYRSRLERQVDVFAGERRDVLRIADNPLGFQIAKRTIILDQSTVLANNLSVFF | soluble
MITFIGHVSKDVNVVDGKREIAYGGGVVMGAITSSLLGVKTKVITKCTREDVSKFSFLRDNGVEVVFLKSPRTTSIENRYGSDPDTRESFLISAADPFTESDLAFIEGEAVHINPLWYGEFPEDLIPVLRRKVMFLSADAQGFVRVPENEKLVYRDWEMKEKYLKYLDLFKVDSREAETLTGTNDLRESCRIIRSFGAKIILATHASGVIVFDGNFYEASFRSWSLEGRTGRGDTCTAAFLVGFVFKKMSIEKATKFAAAVTSVKMRHPGPLRREDLEAISGDQYF | not soluble
MITFRKRVEIEADPAEVFRVISDPWRITEFWKGTRQVIEDGDFYRIRFAFPAWGLMSFHPDAERMTVLTSYLKGPVRGSKVDAVLVSSGKTVLQTEWNVRLSFYLRPFERRIASHFESGADHAINRIKESVEKDKK | not soluble
MITIDLHTHTSHSHGQATVQEMFEAGCARGLLVHGFSEHSPRPSGYDYPKDYRDKLTRSFPDYVEQVRTLAATYAPERTVLLGLEMDWLPGQEPFIDATIHRYDYDYVIGGIHFLGTWGFDYTPDDWQGFSPEQTADIYVRYFESLRRMAASGMFDIAAHPDIIKIFSAAAFHDWLATDKAKAVVRDALETMHTAGMAMEISSAGLRKPCKEIYPCPDIMRMAADIGLPVTFGSDAHCVNTIGWGFDTLADYARGFGYTRSVWMRRGERFERPFLEHHHHHH | soluble
